# Results from US20260207766A1 (Bristol-Myers Squibb, published 2026).
# T1: human CEACAM5 on cells (human, UniProt P06731 35-685)
# T1 construct: Endogenous on MKN45, Ls174T, BxPC-3; overexpressed on HCT116; also called huCEACAM5; HCT116-huCEACAM5
# T1 sequence: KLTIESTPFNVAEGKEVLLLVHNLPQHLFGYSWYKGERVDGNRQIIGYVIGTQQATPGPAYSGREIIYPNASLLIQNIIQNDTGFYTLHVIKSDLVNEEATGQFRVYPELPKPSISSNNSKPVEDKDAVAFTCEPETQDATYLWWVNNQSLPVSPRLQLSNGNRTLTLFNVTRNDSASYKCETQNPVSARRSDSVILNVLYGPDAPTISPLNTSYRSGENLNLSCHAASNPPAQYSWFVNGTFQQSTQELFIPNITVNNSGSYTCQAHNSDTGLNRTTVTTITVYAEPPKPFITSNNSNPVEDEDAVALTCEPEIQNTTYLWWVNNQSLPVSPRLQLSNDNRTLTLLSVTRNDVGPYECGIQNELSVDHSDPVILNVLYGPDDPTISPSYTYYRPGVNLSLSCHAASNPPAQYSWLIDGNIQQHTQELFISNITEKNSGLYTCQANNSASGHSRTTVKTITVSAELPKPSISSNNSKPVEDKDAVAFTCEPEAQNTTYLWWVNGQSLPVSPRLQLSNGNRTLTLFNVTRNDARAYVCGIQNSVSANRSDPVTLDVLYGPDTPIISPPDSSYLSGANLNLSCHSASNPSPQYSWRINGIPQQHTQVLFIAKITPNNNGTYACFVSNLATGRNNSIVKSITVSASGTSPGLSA
# T2: human CEACAM6 on HCT116 cells (human, UniProt P40199 35-320)
# T2 construct: whole, on cells; also called HCT116-huCEACAM6
# T2 sequence (looked up): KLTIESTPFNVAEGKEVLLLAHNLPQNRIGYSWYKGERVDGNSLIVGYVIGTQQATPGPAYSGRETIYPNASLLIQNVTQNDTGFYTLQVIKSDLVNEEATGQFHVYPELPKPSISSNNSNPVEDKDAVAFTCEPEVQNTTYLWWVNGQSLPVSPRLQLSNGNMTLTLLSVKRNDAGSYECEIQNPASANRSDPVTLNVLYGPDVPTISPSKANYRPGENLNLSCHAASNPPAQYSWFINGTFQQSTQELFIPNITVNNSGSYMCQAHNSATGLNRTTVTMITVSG
# T3: human CEACAM1 on CHO-S cells (human, UniProt P13688 35-526)
# T3 construct: whole, on cells; also called CHO-S-huCEACAM1
# T3 sequence (looked up): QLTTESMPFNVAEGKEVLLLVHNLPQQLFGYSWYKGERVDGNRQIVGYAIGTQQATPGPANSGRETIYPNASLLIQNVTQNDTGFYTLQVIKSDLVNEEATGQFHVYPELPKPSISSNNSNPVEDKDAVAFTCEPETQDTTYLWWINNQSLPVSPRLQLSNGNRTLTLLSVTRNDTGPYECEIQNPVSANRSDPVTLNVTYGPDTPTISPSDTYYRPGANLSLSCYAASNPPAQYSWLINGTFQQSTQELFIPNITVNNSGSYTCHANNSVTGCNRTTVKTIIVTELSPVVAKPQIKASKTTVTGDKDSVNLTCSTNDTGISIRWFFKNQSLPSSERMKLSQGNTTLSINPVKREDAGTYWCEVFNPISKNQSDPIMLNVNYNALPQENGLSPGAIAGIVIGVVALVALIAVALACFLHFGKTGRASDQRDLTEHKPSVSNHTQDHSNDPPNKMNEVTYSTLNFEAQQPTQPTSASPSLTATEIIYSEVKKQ
# T4: 6xHis-A3-B3 huCEACAM5 (human, UniProt P06731 501-685, N-linked glycans (seven predicted sites))
# T4 construct: For cryo-EM it was expressed in Expi293F GnTI- cells; also called hCEACAM5-A3-B3 construct; human CEACAM5 A3-B3 domain protein
# T4 sequence: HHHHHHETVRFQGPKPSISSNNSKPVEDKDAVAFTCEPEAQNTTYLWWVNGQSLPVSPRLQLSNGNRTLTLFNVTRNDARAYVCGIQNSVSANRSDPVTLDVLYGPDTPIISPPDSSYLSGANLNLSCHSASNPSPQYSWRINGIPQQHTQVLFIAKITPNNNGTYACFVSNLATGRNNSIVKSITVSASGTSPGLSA
# How the values were obtained:
# human CEACAM5 on cells [1] = molecular target: T1, human CEACAM5 on cells; assay: cell binding, MKN45 cells
# human CEACAM5 on cells [2] = molecular target: T1, human CEACAM5 on cells; assay: FACS on BxPC3 cells
# human CEACAM5 on cells [3] = molecular target: T1, human CEACAM5 on cells; assay: FACS on MKN45 cells
# human CEACAM5 on cells [4] = molecular target: T1, human CEACAM5 on cells; assay: FACS on LS174T cells
# [5] = molecular target: T2, human CEACAM6 on HCT116 cells; assay: flow cytometry on HCT-116 (CEACAM-6) cells
# [6] = molecular target: T3, human CEACAM1 on CHO-S cells; assay: flow cytometry, CHO-S cells overexpressing human CEACAM1
# 6xHis-A3-B3 huCEACAM5 [7] = molecular target: T4, 6xHis-A3-B3 huCEACAM5; assay: SPR Biacore 8K 37C, mAb captured on anti-human Fc, antigen analyte, 1:1 Langmuir fit
# Method: SPR analyses were conducted at 37° C. using a Biacore 8K instrument primed with 1×HBSP+ running water and docked with a CM5 sensor chip equilibrated to room temperature, followed by re-priming of the instrument. The chip surface was activated by injecting an ethyl(dimethylaminopropyl) carbodiimide (EDC)/N-hydroxysuccinimide (NHS) mixture for 7 minutes at 10 μL/min. The activated chip surface was then immobilized with an anti-human Fc capture reagent (at 25 μg/mL in acetate pH 5 buffer) injected on the chip surface for 7 minutes at 10 μL/min to yield an immobilization level of about 9000 RU. The remaining chip surface was blocked by injecting ethanolamine for 7 minutes at 10 μL/min.
# The kinetic data for anti-CEACAM5 mAb:CEACAM5 binding were fit to a 1:1 Langmuir binding with Rmax to provide estimates of the kinetic and affinity values for the corresponding interactions.
# 6xHis-A3-B3 huCEACAM5 [8] = molecular target: T4, 6xHis-A3-B3 huCEACAM5; assay: cryo-EM of CEACAM5 A3-B3 with both Fabs
# Method: Below is a description of the different steps and methods that were performed.
# After the incubation period, 50 μl of complexing reaction solution was passed through a Bio-Spin 30 Size-exclusion chromatography column (30 kDa MWCO, BioRad) to remove any contaminants and Apo-CEACAM5. Prior to use, Bio-Spin 30 columns were equilibrated with 1×PBS, and samples were applied according to the manufacturer's protocol.
EC50 (human CEACAM5 on cells [1]) [nM],EC50 (human CEACAM5 on cells [2]) [nM],EC50 (human CEACAM5 on cells [3]) [nM],EC50 (human CEACAM5 on cells [4]) [nM],binding result [5],binding result [6],Kd (6xHis-A3-B3 huCEACAM5 [7]) [nM],binding result (6xHis-A3-B3 huCEACAM5 [8]),Binder
33.8,1.8,2.2,1.7,no binding (tested: 300 nM),no binding,129,–,"MBN001 (antibody, V domains shown, also called mAb MBN001; MBN001 parent) VH: QVQLVETGGGVVQPGRSLRLSCAASGITFSSHGMHWVRQSPGKGLEWVTFISYDGSYKSYVDSVKGRFAISRDNSKNTLYLQMNSLRPEDTAVYYCATGLTGTGAFDIWGQGTMVTVSS VL: not shown"
–,–,–,–,–,–,–,binds,"Fab of bin 2 mAb (Fab, V domains shown, also called anti-CEACAM5 bin2 mAb Fab) VH: QVQLQESGPGLVKPSGTLSLTCAVSGGSISSSDWWSWVRQPPGKGLEWIGEIYHQGSTNYNPSLKSRVTISVDKSKNQFSLKLSSVTAADTAVYYCARASSSGYYGHDVWGQGTTVTVSS VL: DIQLTQSPSFLSASVGDRVTITCRASQGISTYLAWYQQKPGKAPKFLIYAEKTLQSGVPSRFSGSGSGTEFTLTISSLQPEDFATYYCQQLASYPFTFGPGTKVDIKR"
